Results on one molecule are retold here after article PMC4066776, “Molecular determinants of the DprA−RecA interaction for nucleation on ssDNA” (Nucleic Acids Research, 2014).

What is called stoichiometry N is the number of molecules, sites or subunits per partner or assembly.

Series [1] concerns the molecule itself. Nature of the series: SAXS; scattering curve of 5KA DprA in solution superimposed on that of WT DprA (the latter taken from ref. 18).
In series [2] the target is T1, S. pneumoniae RecA lacking the first 28 residues (Δ28), purified (S. pneumoniae, UniProt P0A451 29-388).
T1 construct: RecA, Streptococcus pneumoniae, locus Sp1940, the 28 first residues removed; also called Δ28RecA; source: E. coli, purified (Ni-NTA column, gel filtration)
Nature of the series: pull-down; pull-down on magnetic beads using purified proteins; which partner was on the beads is told only in the supplementary methods. The conditions noted are these: both partners purified.

B1: S. pneumoniae DprA K119A/K144A/K175A/K202A/K225A (5KA), purified (natural protein)
chain: MKITNYEIYKLKKSGLTNQQILKVLEYGENVDQELLLGDIADISGCRNPAVFMERYFQIDDAHLSKEFQKFPSFSILDDCYPWDLSEIYDAPVLLFYKGNLDLLKFPKVAVVGSRACSAQGAKSVEKVIQGLENELVIVSGLAAGIDTAAHMAALQNGGKTIAVIGTGLDVFYPAANKRLQDYIGNDHLVLSEYGPGEQPLAFHFPARNRIIAGLCRGVIVAEAAMRSGSLITCERAMEEGRDVFAIPGSILDGLSDGCHHLIQEGAKLVTSGQDVLAEFEF
notes: DprA, Streptococcus pneumoniae, locus Sp1266, five lysines K119/K144/K175/K202/K225 mutated to alanines; also called 5KADprA; 5KA mutant; source: E. coli, purified (Ni-NTA column, gel filtration)
Turning to B1, in series [1], the “stoichiometry N” value came out at 2. For the same molecule, the binding result in series [2] is reported as “binds”.
